Values belong to the binder of their own block, whether it stands above or below them. Numbered stars: 1 amine (or outer) side, 2 acyl side, 3 side chain; on linkers, the order of the positions; unused ones are H or OH. Bridge positions count the residues as written; N and C are the ends. Side chains are listed from the residue outwards. Ends that are not written are not given here. * marks the point of attachment. C20 diacid = O=C(O)CCCCCCCCCCCCCCCCCCC(=O)*; C18 diacid = O=C(O)CCCCCCCCCCCCCCCCC(=O)*; γGlu = O=C(O)[C@H](CCC(=O)[*:2])N[*:1]; AEEA = NCCOCCOCC(=O)O
Columns and labels:
[1] = molecular target: T1, human calcitonin receptor (human, UniProt P30988 25-474); assay: SPA competition vs 125I-calcitonin, membranes of BHK cells with human calcitonin receptor (Assay VII)
T1 construct: whole, on cells; Assayed as cell membranes of BHK tk'ts 13 cells stably transfected with the human calcitonin receptor (Assay VII); also called hCTR; hCT
T1 sequence (looked up): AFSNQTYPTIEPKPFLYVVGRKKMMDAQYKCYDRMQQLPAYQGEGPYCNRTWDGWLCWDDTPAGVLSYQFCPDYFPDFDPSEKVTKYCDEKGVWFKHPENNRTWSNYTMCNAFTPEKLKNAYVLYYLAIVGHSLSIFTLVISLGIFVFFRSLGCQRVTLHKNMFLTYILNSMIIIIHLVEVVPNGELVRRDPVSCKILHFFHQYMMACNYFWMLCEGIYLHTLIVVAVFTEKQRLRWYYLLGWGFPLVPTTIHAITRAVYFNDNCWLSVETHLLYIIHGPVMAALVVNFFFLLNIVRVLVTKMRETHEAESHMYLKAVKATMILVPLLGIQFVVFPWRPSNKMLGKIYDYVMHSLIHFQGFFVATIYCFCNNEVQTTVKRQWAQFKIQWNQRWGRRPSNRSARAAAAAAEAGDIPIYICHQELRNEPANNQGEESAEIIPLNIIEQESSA
Description: Membranes were prepared in the following way; the cells were rinsed with PBS and incubated with Versene for approximately 5 min before harvesting. The cells were flushed with PBS and the cell-suspension was centrifuged for 5 min at 1000 rpm. Cells were homogenized (Ultrathurrax) in a buffer containing 20 mM Na-HEPES and 10 mM EDTA (pH 7.4) and centrifuged at 20.000 rpm for 15 min. The resulting pellet was resuspended, homogenized and centrifuged (20.000 rpm, 15 min) in a buffer containing 20 mM Na-HEPES and 0.1 mM EDTA (pH 7.4, buffer 2). The resulting pellet was resuspended in buffer 2 and protein concentration was measured (BCA protein Assay, Pierce). The homogenate was kept cold during the whole procedure. The membranes were kept at −80° C. until use. Assay was performed in a 384 well Optiplate (PerkinElmer) in a total volume of 40 ul. Membranes were mixed with SPA beads. Final concentration of membranes 35 ng/μL final and Final concentration of SPA beads was 0.05 mg/well. Test-compounds were dissolved in DMSO and further diluted in assay buffer (50 mM Hepes, pH 7.4, 1 mM CaCl2, 5 mM MgCl₂, 0.1% OA and 0.02% Tween20). […] The final mixture was incubated for 120 min with shaking at 400 rpm at 25° C. prior to centrifugation (1500 rpm, 10 min). Samples were analyzed on TopCounter™ (Packard). The […] was calculated using (one site binding competition analysis) GraphPad Prism5 as a measure of receptor affinity.

[2] = molecular target: T1, human calcitonin receptor; assay: IC50 at hCTR divided by IC50 at hAmylin-R (SPA competition assays V and VII)
Description: The resulting pellet was resuspended, homogenized and centrifuged (20.000 rpm, 15 min) in a buffer containing 20 mM Na-HEPES and 0.1 mM EDTA (pH 7.4, buffer 2). The resulting pellet was resuspended in buffer 2 and protein concentration was measured (BCA protein Assay, Pierce). The homogenate was kept cold during the whole procedure. The membranes were kept at −80° C. until use. The assay was performed in a 384 well Optiplate (PerkinElmer) in a total volume of 40 ul. Membranes were mixed with SPA beads. Final concentration of membranes 35 ng/μL final and SPA beads was 0.05 mg/well. Test-compounds were dissolved in DMSO and further diluted in assay buffer (50 mM Hepes, pH 7.4, 1 mM CaCl2, 5 mM MgCl₂, 0.1% OA and 0.02% Tween20). […] The final mixture was incubated with shaking at 400 rpm for 120 min at 25° C. prior to centrifugation (1500 rpm, 10 min). Samples were analyzed on TopCounter™ (Packard). The IC₅₀ was calculated using (one site binding competition analysis) GraphPad Prism5 as a measure of receptor affinity.
Membranes were prepared in the following way; the cells were rinsed with PBS and incubated with Versene for approximately 5 min before harvesting. The cells were flushed with PBS and the cell-suspension was centrifuged for 5 min at 1000 rpm. Cells were homogenized (Ultrathurrax) in a buffer containing 20 mM Na-HEPES and 10 mM EDTA (pH 7.4) and centrifuged at 20.000 rpm for 15 min. The resulting pellet was resuspended, homogenized and centrifuged (20.000 rpm, 15 min) in a buffer containing 20 mM Na-HEPES and 0.1 mM EDTA (pH 7.4, buffer 2). The resulting pellet was resuspended in buffer 2 and protein concentration was measured (BCA protein Assay, Pierce). The homogenate was kept cold during the whole procedure. The membranes were kept at −80° C. until use. Assay was performed in a 384 well Optiplate (PerkinElmer) in a total volume of 40 ul. Membranes were mixed with SPA beads.

[3] = molecular target: T2, human calcitonin receptor (human, UniProt P30988 25-474); assay: ratio of IC50 at human calcitonin receptor to IC50 at human amylin receptor (SPA competition assays)
T2 construct: whole, on cells; also called hCTR; hCT
T2 sequence (looked up): T1 sequence (looked up)
Procedure, shortened: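 Scintillation proximity competition binding on cell membranes at 35 ng/μL with SPA beads, in 50 mM Hepes pH 7.4, 1 mM CaCl2, 5 mM MgCl₂, 0.1% OA, 0.02% Tween20. Incubated 120 min at 25° C with shaking. IC₅₀ from one-site competition fit.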

[4] = molecular target: T2, human calcitonin receptor; assay: SPA radioligand competition (125I-calcitonin), membranes of BHK cells with human calcitonin receptor
Procedure, shortened: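 BHK hCTR membranes 35 ng/μL + SPA beads 0.05 mg/well; buffer 50 mM Hepes pH 7.4, 1 mM CaCl2, 5 mM MgCl₂, 0.1% OA, 0.02% Tween20. 120 min, 25° C., shaking. Scintillation count; IC50 by one-site binding competition.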

IC50 [1]: 8.68 nM | Ratio hCT/hAmylin binding [2]: 65.3
B1: N^ε1-[2-[2-[2-[[(4S)-4-carboxy-4-(19-carboxynonadecanoylamino)butanoyl]amino]ethoxy]ethoxy]acetyl]-[His14,Arg17,Pro21,Pro27]-h-amylin (peptide)
peptide: K([AEEA-γGlu-C20 diacid])CNTATCATQRLAHFLRHSSPNFGAIPSSTNVGSNTY-NH2
modifications: disulfide 2-7; N-terminus assumed
SMILES: CC[C@H](C)[C@H](NC(=O)[C@H](C)NC(=O)CNC(=O)[C@H](Cc1ccccc1)NC(=O)[C@H](CC(N)=O)NC(=O)[C@@H]1CCCN1C(=O)[C@H](CO)NC(=O)[C@H](CO)NC(=O)[C@H](Cc1c[nH]cn1)NC(=O)[C@H](CCCNC(=N)N)NC(=O)[C@H](CC(C)C)NC(=O)[C@H](Cc1ccccc1)NC(=O)[C@H](Cc1c[nH]cn1)NC(=O)[C@H](C)NC(=O)[C@H](CC(C)C)NC(=O)[C@H](CCCNC(=N)N)NC(=O)[C@H](CCC(N)=O)NC(=O)[C@@H](NC(=O)[C@H](C)NC(=O)[C@@H]1CSSC[C@H](NC(=O)[C@@H](N)CCCCNC(=O)COCCOCCNC(=O)CC[C@H](NC(=O)CCCCCCCCCCCCCCCCCCC(=O)O)C(=O)O)C(=O)N[C@@H](CC(N)=O)C(=O)N[C@@H]([C@@H](C)O)C(=O)N[C@@H](C)C(=O)N[C@@H]([C@@H](C)O)C(=O)N1)[C@@H](C)O)C(=O)N1CCC[C@H]1C(=O)N[C@@H](CO)C(=O)N[C@@H](CO)C(=O)N[C@H](C(=O)N[C@@H](CC(N)=O)C(=O)N[C@H](C(=O)NCC(=O)N[C@@H](CO)C(=O)N[C@@H](CC(N)=O)C(=O)N[C@H](C(=O)N[C@@H](Cc1ccc(O)cc1)C(N)=O)[C@@H](C)O)C(C)C)[C@@H](C)O
notes: also called compound 69

IC50 [1]: 12 nM | Ratio hCT/hAmylin binding [2]: 101
B2: N^ε1-[2-[2-[2-(19-carboxynonadecanoylamino)ethoxy]ethoxy]acetyl]-[Arg17,Pro21,Pro27,His34]-h-amylin (peptide)
peptide: K([AEEA-C20 diacid])CNTATCATQRLANFLRHSSPNFGAIPSSTNVGHNTY-NH2
modifications: disulfide 2-7; N-terminus assumed
SMILES: CC[C@H](C)[C@H](NC(=O)[C@H](C)NC(=O)CNC(=O)[C@H](Cc1ccccc1)NC(=O)[C@H](CC(N)=O)NC(=O)[C@@H]1CCCN1C(=O)[C@H](CO)NC(=O)[C@H](CO)NC(=O)[C@H](Cc1c[nH]cn1)NC(=O)[C@H](CCCNC(=N)N)NC(=O)[C@H](CC(C)C)NC(=O)[C@H](Cc1ccccc1)NC(=O)[C@H](CC(N)=O)NC(=O)[C@H](C)NC(=O)[C@H](CC(C)C)NC(=O)[C@H](CCCNC(=N)N)NC(=O)[C@H](CCC(N)=O)NC(=O)[C@@H](NC(=O)[C@H](C)NC(=O)[C@@H]1CSSC[C@H](NC(=O)[C@@H](N)CCCCNC(=O)COCCOCCNC(=O)CCCCCCCCCCCCCCCCCCC(=O)O)C(=O)N[C@@H](CC(N)=O)C(=O)N[C@@H]([C@@H](C)O)C(=O)N[C@@H](C)C(=O)N[C@@H]([C@@H](C)O)C(=O)N1)[C@@H](C)O)C(=O)N1CCC[C@H]1C(=O)N[C@@H](CO)C(=O)N[C@@H](CO)C(=O)N[C@H](C(=O)N[C@@H](CC(N)=O)C(=O)N[C@H](C(=O)NCC(=O)N[C@@H](Cc1c[nH]cn1)C(=O)N[C@@H](CC(N)=O)C(=O)N[C@H](C(=O)N[C@@H](Cc1ccc(O)cc1)C(N)=O)[C@@H](C)O)C(C)C)[C@@H](C)O
notes: also called compound 91

IC50 [1]: 56.9 nM
B3: N^ε1-[(4S)-4-carboxy-4-[[(4S)-4-carboxy-4-(19-carboxynonadecanoylamino)butanoyl]amino]butanoyl]-[Asp14,Arg17,Pro21,Pro27,Arg35]-h-amylin (peptide)
peptide: K([γGlu-γGlu-C20 diacid])CNTATCATQRLADFLRHSSPNFGAIPSSTNVGSRTY-NH2
modifications: disulfide 2-7; N-terminus assumed
SMILES: CC[C@H](C)[C@H](NC(=O)[C@H](C)NC(=O)CNC(=O)[C@H](Cc1ccccc1)NC(=O)[C@H](CC(N)=O)NC(=O)[C@@H]1CCCN1C(=O)[C@H](CO)NC(=O)[C@H](CO)NC(=O)[C@H](Cc1c[nH]cn1)NC(=O)[C@H](CCCNC(=N)N)NC(=O)[C@H](CC(C)C)NC(=O)[C@H](Cc1ccccc1)NC(=O)[C@H](CC(=O)O)NC(=O)[C@H](C)NC(=O)[C@H](CC(C)C)NC(=O)[C@H](CCCNC(=N)N)NC(=O)[C@H](CCC(N)=O)NC(=O)[C@@H](NC(=O)[C@H](C)NC(=O)[C@@H]1CSSC[C@H](NC(=O)[C@@H](N)CCCCNC(=O)CC[C@H](NC(=O)CC[C@H](NC(=O)CCCCCCCCCCCCCCCCCCC(=O)O)C(=O)O)C(=O)O)C(=O)N[C@@H](CC(N)=O)C(=O)N[C@@H]([C@@H](C)O)C(=O)N[C@@H](C)C(=O)N[C@@H]([C@@H](C)O)C(=O)N1)[C@@H](C)O)C(=O)N1CCC[C@H]1C(=O)N[C@@H](CO)C(=O)N[C@@H](CO)C(=O)N[C@H](C(=O)N[C@@H](CC(N)=O)C(=O)N[C@H](C(=O)NCC(=O)N[C@@H](CO)C(=O)N[C@@H](CCCNC(=N)N)C(=O)N[C@H](C(=O)N[C@@H](Cc1ccc(O)cc1)C(N)=O)[C@@H](C)O)C(C)C)[C@@H](C)O
notes: also called compound 52

Ratio hCT/hAmylin binding [3]: 59.4 | IC50 [4]: 22.7 nM
B4: N^ε1-[(4S)-4-carboxy-4-(17-carboxyheptadecanoylamino)butanoyl]-[Arg17,Pro21,Pro27,His34]-h-amylin (peptide)
peptide: K([γGlu-C18 diacid])CNTATCATQRLANFLRHSSPNFGAIPSSTNVGHNTY-NH2
modifications: disulfide 2-7; N-terminus assumed
SMILES: CC[C@H](C)[C@H](NC(=O)[C@H](C)NC(=O)CNC(=O)[C@H](Cc1ccccc1)NC(=O)[C@H](CC(N)=O)NC(=O)[C@@H]1CCCN1C(=O)[C@H](CO)NC(=O)[C@H](CO)NC(=O)[C@H](Cc1c[nH]cn1)NC(=O)[C@H](CCCNC(=N)N)NC(=O)[C@H](CC(C)C)NC(=O)[C@H](Cc1ccccc1)NC(=O)[C@H](CC(N)=O)NC(=O)[C@H](C)NC(=O)[C@H](CC(C)C)NC(=O)[C@H](CCCNC(=N)N)NC(=O)[C@H](CCC(N)=O)NC(=O)[C@@H](NC(=O)[C@H](C)NC(=O)[C@@H]1CSSC[C@H](NC(=O)[C@@H](N)CCCCNC(=O)CC[C@H](NC(=O)CCCCCCCCCCCCCCCCC(=O)O)C(=O)O)C(=O)N[C@@H](CC(N)=O)C(=O)N[C@@H]([C@@H](C)O)C(=O)N[C@@H](C)C(=O)N[C@@H]([C@@H](C)O)C(=O)N1)[C@@H](C)O)C(=O)N1CCC[C@H]1C(=O)N[C@@H](CO)C(=O)N[C@@H](CO)C(=O)N[C@H](C(=O)N[C@@H](CC(N)=O)C(=O)N[C@H](C(=O)NCC(=O)N[C@@H](Cc1c[nH]cn1)C(=O)N[C@@H](CC(N)=O)C(=O)N[C@H](C(=O)N[C@@H](Cc1ccc(O)cc1)C(N)=O)[C@@H](C)O)C(C)C)[C@@H](C)O

Reference: patent US20140087995A1 (published 2014)
